The source of these data is patent publication US20240425555A1, “MUTANT BRD4 POLYPEPTIDES AND METHODS OF USE THEREOF” (Northwestern University, priority 2023, published 2024).

Experiment [1] deals with Pol II pausing. Briefly: total Pol II ChIP-seq upon auxin, JQ1, dBET6 or NVP-2 treatment. It counts as cell-based, human. An excerpt:
FIG. 1A illustrates the updated BRD4-IAA7 degron line. The F-box protein AtAFB2 was integrated into the C terminus of the BRD4 locus under the control of an independent promoter. […] These treatment concentrations/durations are relevant to all of FIG. 1. […] The gene list (N=6481) in this analysis is used throughout the study (except for FIGS. 3H-J). FIG. 1D illustrates the estimated Cumulative Density Function (ECDF) of pause release ratios (PRR, reported as log 2 fold change) for auxin treatment vs untreated control. The PRR is the ratio of Pol II occupancy within gene bodies to its occupancy at promoters. A leftward shift of the curve indicates an increase in the frequency and/or duration of promoter-proximal pausing, while a rightward shift indicates reduced pausing and/or more efficient release into gene bodies.
FIGS. 8A-8E. collectively illustrate the differences in Pol II pausing induced by BRD4 depletion and bromodomain inhibition, related to FIG. 1. FIG. 8A illustrates the western blot showing the expression of HA-tagged AtAFB2 and the auxin-induced degradation of V5-tagged BRD4 using anti-tag antibodies. FIG. 8B illustrates the western blot comparing the BRD4 protein expression level and degradation kinetics of the previously published BRD4-AID degron to those of the BRD4-IAA7 degron used in this study 12. Note: in FIGS. 8A and 8B, the BRD4-IAA7 clone used is D4 (Hygromycin selected); it is G3 (Neomycin selected) otherwise in the study. […] FIG. 8E illustrates the track examples of Pol II ChIP-seq signal at the HSPA8 and GAPDH loci upon NVP-2 treatment (2 h) and corresponding heatmaps showing Pol II occupancy profiles and fold change in occupancy vs control upon NVP-2 treatment.
To specifically deplete BRD4 without affecting other BET proteins, we generated an updated BRD4 degron line by modifying the published miniIAA7 degron system (hereafter BRD4-IAA7) to reduce basal degradation seen with AID degron-tagged BRD4^30 (FIGS. 1A and 8A).
DLD1 cells were crosslinked with 15 ml 1% PFA (ThermoFisher, #28908) in PBS on 15 cm plates for 10 minutes at RT and quenched by the addition of 2 ml 2.5M glycine followed by shaking for 5 minutes. Crosslinked cells were collected by scraping. Chromatin sonication was performed for 10 minutes using a Covaris E200 set to 10% duty factor, 200 cycles per burst, and 140 peak intensity power. For endogenous protein ChIP, 10-20% of mouse embryonic fibroblasts (MEF) chromatin (prepared the same way as in DLD1 cells) was added to each sample as a spike-in control. For overexpressed protein ChIP, such as GFP-ChIP, 20 ng spike-in chromatin (Active Motif, #53083) and 2 ug spike-in antibody (Active Motif, #61686) were added to each sample. Immunoprecipitation was carried out at 4° C. overnight using 5ul of Rpb1 (Cell Signaling Technology, #D8L4Y), 5ul of Ser2p (Active Motif, #61984), 10ul of CCNT1 (Cell Signaling Technology, #81464), 10ul of CDK9 (Santa Cruz Biotechnology, #sc-13130 X) antibodies, or 200ul of a cocktail consisting of 50ul of each GFP antibody (DSHB, #GFP-G1, #GFP-12A6, #GFP-12E6, #GFP-8H11). Immune complexes were enriched with Protein G-coupled Dynabeads (Invitrogen, #10004D) at 4° C. for >=4 h, and incubated with proteinase K (Roche, #3115828001) to reverse crosslink at 65° C. overnight. Eluted DNA was purified with the QIAquick PCR Purification Kit (Qiagen, #28106), and libraries were prepared using the KAPA HTP library preparation kit (Roche, #07961901001) for sequencing on the NovaSeq 6000.
Reads were aligned to hg38 with bowtie 1/250. Genes (N=6,481) with pausing site and TES annotation were obtained from a previously published study51. Promoter regions were designated as spanning from 100 bp upstream to 300 bp downstream of the pausing site. Gene body regions were designated as spanning from 300 bp downstream of the pausing site to the TES. FeatureCounts 2.0.152 was used to calculate the total mapped reads from Pol II ChIP-seq at promoters and within gene bodies. […]

Experiment [2] deals with BRD4 (UniProt O60885+Q38825). Kind of experiment: Western blot of BRD4 degradation in BRD4-IAA7 degron line. Type of experiment: cell-based, human. Conditions: BRD4-IAA7 DLD1 degron line; auxin 500 uM 2 or 3 h; JQ1 1 uM or dBET6 250 nM 3 h.
Experiment [3] has as its target T1, PTEFb (Homo sapiens, UniProt O60563+P50750). Kind of experiment: Peptide titration: p46 competition in Bio-p46 pull down assay. It counts as binding. On the set-up: endogenous in cells. The text has this:
FIGS. 15A-15E. FIG. 15A. Spectral counts for BRD4, CCNT1, and CDK9 from the GFP IP for the GFP-tagged BRD4 C terminus fragment of 340 residues (C) and 46 residues (C46) followed by mass spectrometry. FIG. 15B. Western blot validation for the mass spectrometry using the remaining GFP IP samples from one of the replicates. FIG. 15C. […] FIG. 15D. […] FIG. 15E. Quantitative curves of PTEFb signal intensity from western blot in D against increasing concentration of p46.
To pull down PTEFb by Biotin-labeled peptide, cells were lysed with Triton X-100 lysis buffer as used for GFP IP. Biotin-labeled peptides were pre-incubated with streptavidin beads at room temperature for 30 min. Conjugated beads were then washed with lysis buffer twice before adding to the cell lysate. Pulldown was carried out at 4° C. by rotating for >=4 h, followed by 5 times wash with lysis buffer. To elute, 4× Laemmli sample buffer was added and boiled for 10 min. For the peptide titration experiment, a series of concentration of p46 was pre-incubated with same amount of cell lysate for 1 h at 4° C. Same amount of Bio-p46 conjugated streptavidin beads were used to pull down PTEFb for >=4 h. PTEFb signal intensity from western blot was determined by Image Lab from Bio-Rad.

Experiment [4] addresses T1, PTEFb. Kind of experiment: BRD4 IP / GFP IP competition for PTEFb by C46 or p46. On the set-up: endogenous in cells; lysate of unnamed cells for the p46 addition. Type of experiment: binding. The text has this:
FIGS. 14A-14G. Identification of essential PTEFb binding sites in BRD4's C-terminus. FIG. 14A. Schematic showing the constructs of Dox inducible GFP-tagged BRD4 C terminus mutants with residue length indicated. Western blot of GFP IP for these two mutants upon Dox induction for 2 days showing both mutants can interact with PTEFb. FIG. 14B. […] Auxin treatment serves as a positive control for the loss of endogenous BRD4. FIG. 14C. […] FIG. 14D. […] FIG. 14E. Schematic showing the sequence alignment of the 46 residues in the C terminus of BRD4 and BRDT as well as the alanine scanning strategy to mutate each site for 3 amino acids at one time. FIG. 14F. Comparison of the ability to pull down PTEFb by Bio-p46/Bio-p46* and Biotin-labeled BRDT C terminus 46 residues (Bio-pT46) as well as Biotin-labeled BRD4 C terminus 46 residues with each of the sites mutated to AAA as shown in E (Bio-p1 to p7). FIG. 14G. Western blot of GFP IP showing the amount of PTEFb binding to GFP-tagged BRD4 C terminus fragment of 340 residues (WT) and its mutants with each of the sites mutated to AAA as indicated in E (A-H).
FIGS. 15A-15E. FIG. 15A. Spectral counts for BRD4, CCNT1, and CDK9 from the GFP IP for the GFP-tagged BRD4 C terminus fragment of 340 residues (C) and 46 residues (C46) followed by mass spectrometry. […] Quantitative curves of PTEFb signal intensity from western blot in D against increasing concentration of p46. […]

Experiment [5] deals with T1, PTEFb. Briefly: GFP IP-MS and GFP IP western blot of GFP-tagged BRD4 constructs. Type of experiment: binding. Conditions: GFP-tagged; for binding to PTEFb (western blot for GFP IP): Dox 2 days.

T1 sequence (P50750 whole entry, the tested form may be a part): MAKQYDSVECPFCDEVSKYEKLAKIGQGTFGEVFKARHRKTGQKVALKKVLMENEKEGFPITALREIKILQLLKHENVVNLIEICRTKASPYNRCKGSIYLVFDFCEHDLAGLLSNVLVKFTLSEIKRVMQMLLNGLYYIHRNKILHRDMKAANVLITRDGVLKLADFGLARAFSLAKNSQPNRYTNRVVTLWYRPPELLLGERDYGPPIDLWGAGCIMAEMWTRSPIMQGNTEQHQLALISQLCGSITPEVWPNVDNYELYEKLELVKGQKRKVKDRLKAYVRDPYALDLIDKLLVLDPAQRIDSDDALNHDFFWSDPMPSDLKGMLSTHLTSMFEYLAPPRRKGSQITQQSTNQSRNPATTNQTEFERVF
T1 sequence (O60563 whole entry, the tested form may be a part): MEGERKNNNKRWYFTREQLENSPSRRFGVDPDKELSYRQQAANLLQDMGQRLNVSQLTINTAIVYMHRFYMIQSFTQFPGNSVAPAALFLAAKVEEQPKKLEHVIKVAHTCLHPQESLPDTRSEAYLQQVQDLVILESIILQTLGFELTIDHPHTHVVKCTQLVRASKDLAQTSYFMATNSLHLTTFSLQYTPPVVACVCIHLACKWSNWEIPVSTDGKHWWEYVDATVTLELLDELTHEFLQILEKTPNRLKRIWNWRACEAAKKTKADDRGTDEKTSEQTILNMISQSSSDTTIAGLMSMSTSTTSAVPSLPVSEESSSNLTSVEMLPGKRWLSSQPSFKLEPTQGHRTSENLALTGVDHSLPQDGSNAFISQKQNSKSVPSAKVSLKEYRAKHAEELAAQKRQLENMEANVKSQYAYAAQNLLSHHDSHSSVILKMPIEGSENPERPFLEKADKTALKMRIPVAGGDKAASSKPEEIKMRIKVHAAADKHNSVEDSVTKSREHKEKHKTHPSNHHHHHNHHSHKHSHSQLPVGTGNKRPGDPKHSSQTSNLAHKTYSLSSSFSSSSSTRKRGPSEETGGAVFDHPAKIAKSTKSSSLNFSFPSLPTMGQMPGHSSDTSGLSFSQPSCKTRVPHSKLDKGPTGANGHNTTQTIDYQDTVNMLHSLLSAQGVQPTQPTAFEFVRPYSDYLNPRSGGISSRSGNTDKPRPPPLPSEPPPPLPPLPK

As to `O=C(O)Cc1c[nH]c2ccccc12` [auxin], the “Pol II pausing (Pol II occupancy profile)” value in experiment [1] (BRD4-IAA7 cells, auxin 500 uM, JQ1 1 uM, dBET6 250 nM, 3 h) was “inducing pausing at the majority of Pol II-transcribed genes”. Further, the “BRD4 degradation (western blot)” value in experiment [2] is “rapidly degraded”.

Take “p46: synthetic peptide of the BRD4 C terminus 46 residues”: in experiment [3] (cell lysate pre-incubated with increasing concentration of p46), the “binding of PTEFb to Bio-p46” value is reported as “decreased binding of PTEFb”. Also, the “"IC50"” value in experiment [3] (competition between free and biotin-labelled peptides, in vitro) is recorded as “hundred nanomole level”. Also, in experiment [4] (p46 added to cell lysate prior to IP), the “amount of PTEFb bound to endogenous BRD4 or overexpressed GFP-tagged C46” value was “significantly decreased”.

With “C46: BRD4 C terminus 46aa (SEQ ID NO: 1) expressed in cells with a GFP tag”, the “competition with endogenous BRD4 for PTEFb (endogenous BRD4 IP)” value in experiment [4] (C46 expressed in BRD4-V5-IAA7 degron line) is listed as “competes with the endogenous BRD4 for PTEFb”. Besides, in experiment [5] (Dox 50 nM 2 days), the “interaction with PTEFb (GFP IP-MS)” value is listed as “does not impair its interaction with PTEFb”. The “binding to PTEFb (western blot for GFP IP)” value in experiment [5] was “bind to PTEFb strongly”.

NVP2: the “Pol II pausing genome-wide upon CDK9 inhibition” value in experiment [1] (DLD1 cells, NVP-2 treatment 2 h) was “induced strong Pol II pausing genome-wide”.

“C85: BRD4 C terminus 85aa expressed in cells with a GFP tag”: the “binding to PTEFb (western blot for GFP IP)” value in experiment [5] is listed as “bind to PTEFb strongly”.
